# Experimental data: patent publication US10202584B2, “Red-shifted luciferase-luciferin pairs for enhanced bioluminescence” (The Regents of the University of California, priority 2016, dated 2019)
# Tested on: HEK 293T cells
# Assay: Bioluminescence relative to FLuc with P2A bicistronic vectors in HEK 293T cells
# Assay type: cell-based, Human
# Conditions: 10,000 HEK 293T cells, 30 μM substrates, first 2 min integrated
# From the text: FIG. 12 is a panel examining the impact of luciferase protein levels on bioluminescence intensities. (12a) Western blot analysis of HEK 293T cells expressing luciferases with C-terminal c-Myc tags. The relative proteins levels quantified from individual bands are shown in parentheses. These enzymes were expressed at different levels but the differences were within 3-fold. […] Under this condition, two luciferases in the same vectors are expected to be expressed near-stoichiometrically.
molecule,measurement,value
"NanoLuc: luciferase engineered from a 19 kDa domain of Oplophorus luciferase (SEQ ID NO: 1) (protein, Engineered mutant of Oplophorus gracilirostris polypeptide) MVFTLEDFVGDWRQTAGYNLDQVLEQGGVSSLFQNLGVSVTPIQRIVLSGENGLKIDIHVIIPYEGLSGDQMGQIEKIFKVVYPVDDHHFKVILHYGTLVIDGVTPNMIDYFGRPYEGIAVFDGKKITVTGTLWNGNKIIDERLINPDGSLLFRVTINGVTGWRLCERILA","bioluminescence relative to FLuc, P2A bicistronic vectors",Large bioluminescence enhancements
